Test results from PMC10213050 (Nature Communications, 2023).

Tests used:
Rad51 = Rad51 (Saccharomyces cerevisiae (yeast), UniProt P25454 1-400); test: pull-down; ATP; Pull-down: 42 mM Tris-HCl pH 7.5, 15 mM KCl, 90 mM NaCl, 2 mM ATP, 1 mM EDTA, 0.5% NP-40, 1 mM DTT, 20 ug/mL BSA, 5% glycerol, 37 C; EMSA: 42 mM MOPS pH 7.2, 3; details: protein: recombinant; tags: 6xHis (pET30a) or GST-cleaved; label: 5'-biotin
hRad51 = hRad51 (Homo sapiens, UniProt Q06609 1-339); test: as above; details: protein: recombinant; tags: 6xHis or GST-cleaved; chain copies: 10; label: 5'-biotin
Bre1 = biological target: T1, Bre1 (Saccharomyces cerevisiae (yeast), UniProt Q07457 1-700); test: pull-down; Bre1 alone; Pull-down: 42 mM Tris-HCl pH 7.5, 15 mM KCl, 90 mM NaCl, 2 mM ATP, 1 mM EDTA, 0.5% NP-40, 1 mM DTT, 20 ug/mL BSA, 5% glycerol, 37 C; EMSA: 42 mM MOPS pH 7.2, 3; details: protein: recombinant; tags: 6xHis; label: 5'-biotin
T1 sequence: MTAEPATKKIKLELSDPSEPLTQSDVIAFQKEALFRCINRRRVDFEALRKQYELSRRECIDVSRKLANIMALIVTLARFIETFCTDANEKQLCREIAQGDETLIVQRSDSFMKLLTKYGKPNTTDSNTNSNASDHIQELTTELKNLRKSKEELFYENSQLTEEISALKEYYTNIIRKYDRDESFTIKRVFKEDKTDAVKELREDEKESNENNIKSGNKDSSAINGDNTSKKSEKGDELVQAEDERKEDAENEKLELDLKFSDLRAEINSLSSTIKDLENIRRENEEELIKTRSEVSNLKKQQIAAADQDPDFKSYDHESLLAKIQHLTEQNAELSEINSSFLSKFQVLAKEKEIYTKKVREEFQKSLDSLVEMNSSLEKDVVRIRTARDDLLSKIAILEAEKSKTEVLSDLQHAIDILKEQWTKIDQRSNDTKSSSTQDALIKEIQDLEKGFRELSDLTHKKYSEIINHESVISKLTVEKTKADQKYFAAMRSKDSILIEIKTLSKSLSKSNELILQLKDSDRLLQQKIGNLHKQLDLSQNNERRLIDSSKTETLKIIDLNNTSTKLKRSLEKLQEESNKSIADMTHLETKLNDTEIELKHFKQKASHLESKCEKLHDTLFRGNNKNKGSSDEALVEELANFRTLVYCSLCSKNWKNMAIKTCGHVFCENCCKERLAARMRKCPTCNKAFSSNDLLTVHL

Srs2 = Srs2 (Saccharomyces cerevisiae (yeast), UniProt P12954 1-1174); test: pull-down; 200 nM ssDNA; Pull-down: 42 mM Tris-HCl pH 7.5, 15 mM KCl, 90 mM NaCl, 2 mM ATP, 1 mM EDTA, 0.5% NP-40, 1 mM DTT, 20 ug/mL BSA, 5% glycerol, 37 C; EMSA: 42 mM MOPS pH 7.2, 3; details: protein: recombinant; tags: GST (pGEX-6p-1); label: 5'-biotin
RNF20N = RNF20N (Homo sapiens, UniProt Q5VTR2 1-300); test: pull-down; RNF20N alone; Pull-down: 42 mM Tris-HCl pH 7.5, 15 mM KCl, 90 mM NaCl, 2 mM ATP, 1 mM EDTA, 0.5% NP-40, 1 mM DTT, 20 ug/mL BSA, 5% glycerol, 37 C; EMSA: 42 mM MOPS pH 7.2, 3; details: protein: recombinant; tags: GST (pGEX-6p-1); label: 5'-biotin
Rad51;Bre1 = Rad51;Bre1 (Saccharomyces cerevisiae …, UniProt P25454;Q07457 1-400;1-700, |); test: pull-down; ATP; Bre1 stimulates Rad51 binding and is co-captured; Pull-down: 42 mM Tris-HCl pH 7.5, 15 mM KCl, 90 mM NaCl, 2 mM ATP, 1 mM EDTA, 0.5% NP-40, 1 mM DTT, 20 ug/mL BSA, 5% glycerol, 37 C; EMSA: 42 mM MOPS pH 7.2, 3; details: protein: recombinant;recombinant; tags: 6xHis (pET30a) or GST-cleaved;6xHis; label: 5'-biotin
hRad51;RNF20N = hRad51;RNF20N (Homo sapiens;Homo sapiens, UniProt Q06609;Q5VTR2 1-339;1-300, |); test: pull-down; ATP; RNF20N stimulates hRad51 binding and is co-captured; Pull-down: 42 mM Tris-HCl pH 7.5, 15 mM KCl, 90 mM NaCl, 2 mM ATP, 1 mM EDTA, 0.5% NP-40, 1 mM DTT, 20 ug/mL BSA, 5% glycerol, 37 C; EMSA: 42 mM MOPS pH 7.2, 3; details: protein: recombinant;recombinant; tags: 6xHis or GST-cleaved;GST (pGEX-6p-1); label: 5'-biotin
Sequence of hRad51;RNF20N (Q06609 whole entry, chain 1 of 2): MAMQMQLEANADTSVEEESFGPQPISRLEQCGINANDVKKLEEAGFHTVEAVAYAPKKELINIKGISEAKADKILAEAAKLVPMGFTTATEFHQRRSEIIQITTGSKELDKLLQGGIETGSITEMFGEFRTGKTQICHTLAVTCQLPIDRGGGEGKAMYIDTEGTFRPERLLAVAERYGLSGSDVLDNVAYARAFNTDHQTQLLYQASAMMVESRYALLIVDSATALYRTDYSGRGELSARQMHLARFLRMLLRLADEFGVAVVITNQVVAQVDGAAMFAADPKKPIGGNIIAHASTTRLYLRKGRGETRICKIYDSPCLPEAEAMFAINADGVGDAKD
Sequence of hRad51;RNF20N (Q5VTR2 1-300, chain 2 of 2): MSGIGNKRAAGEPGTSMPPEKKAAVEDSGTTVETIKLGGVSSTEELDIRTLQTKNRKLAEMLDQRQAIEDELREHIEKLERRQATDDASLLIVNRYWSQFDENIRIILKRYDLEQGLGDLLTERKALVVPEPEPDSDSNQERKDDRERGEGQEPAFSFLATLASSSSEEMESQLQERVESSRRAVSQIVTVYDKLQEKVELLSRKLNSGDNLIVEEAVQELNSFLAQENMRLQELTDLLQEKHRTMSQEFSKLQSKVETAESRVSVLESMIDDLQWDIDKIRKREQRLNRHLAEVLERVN

Sequence of Rad51;Bre1 (P25454 whole entry, one chain of several): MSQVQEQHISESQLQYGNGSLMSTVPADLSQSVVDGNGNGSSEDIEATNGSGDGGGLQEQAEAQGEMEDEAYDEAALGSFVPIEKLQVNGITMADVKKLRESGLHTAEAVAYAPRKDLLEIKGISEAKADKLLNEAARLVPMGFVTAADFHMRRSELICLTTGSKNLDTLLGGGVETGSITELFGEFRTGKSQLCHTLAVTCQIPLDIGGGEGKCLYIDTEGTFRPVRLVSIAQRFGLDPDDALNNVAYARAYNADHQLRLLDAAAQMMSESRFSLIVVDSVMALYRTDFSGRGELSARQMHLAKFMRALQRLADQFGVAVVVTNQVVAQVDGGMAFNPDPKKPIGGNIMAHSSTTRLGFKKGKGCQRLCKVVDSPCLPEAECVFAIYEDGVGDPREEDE
Sequence of Rad51 (P25454 whole entry): as the sequence (P25454 whole entry, one chain of several) above
Sequence of hRad51 (Q06609 whole entry): as the sequence (Q06609 whole entry, chain 1 of 2) above
Sequence of RNF20N (Q5VTR2 1-300): as the sequence (Q5VTR2 1-300, chain 2 of 2) above
Sequence of Srs2 (P12954 whole entry): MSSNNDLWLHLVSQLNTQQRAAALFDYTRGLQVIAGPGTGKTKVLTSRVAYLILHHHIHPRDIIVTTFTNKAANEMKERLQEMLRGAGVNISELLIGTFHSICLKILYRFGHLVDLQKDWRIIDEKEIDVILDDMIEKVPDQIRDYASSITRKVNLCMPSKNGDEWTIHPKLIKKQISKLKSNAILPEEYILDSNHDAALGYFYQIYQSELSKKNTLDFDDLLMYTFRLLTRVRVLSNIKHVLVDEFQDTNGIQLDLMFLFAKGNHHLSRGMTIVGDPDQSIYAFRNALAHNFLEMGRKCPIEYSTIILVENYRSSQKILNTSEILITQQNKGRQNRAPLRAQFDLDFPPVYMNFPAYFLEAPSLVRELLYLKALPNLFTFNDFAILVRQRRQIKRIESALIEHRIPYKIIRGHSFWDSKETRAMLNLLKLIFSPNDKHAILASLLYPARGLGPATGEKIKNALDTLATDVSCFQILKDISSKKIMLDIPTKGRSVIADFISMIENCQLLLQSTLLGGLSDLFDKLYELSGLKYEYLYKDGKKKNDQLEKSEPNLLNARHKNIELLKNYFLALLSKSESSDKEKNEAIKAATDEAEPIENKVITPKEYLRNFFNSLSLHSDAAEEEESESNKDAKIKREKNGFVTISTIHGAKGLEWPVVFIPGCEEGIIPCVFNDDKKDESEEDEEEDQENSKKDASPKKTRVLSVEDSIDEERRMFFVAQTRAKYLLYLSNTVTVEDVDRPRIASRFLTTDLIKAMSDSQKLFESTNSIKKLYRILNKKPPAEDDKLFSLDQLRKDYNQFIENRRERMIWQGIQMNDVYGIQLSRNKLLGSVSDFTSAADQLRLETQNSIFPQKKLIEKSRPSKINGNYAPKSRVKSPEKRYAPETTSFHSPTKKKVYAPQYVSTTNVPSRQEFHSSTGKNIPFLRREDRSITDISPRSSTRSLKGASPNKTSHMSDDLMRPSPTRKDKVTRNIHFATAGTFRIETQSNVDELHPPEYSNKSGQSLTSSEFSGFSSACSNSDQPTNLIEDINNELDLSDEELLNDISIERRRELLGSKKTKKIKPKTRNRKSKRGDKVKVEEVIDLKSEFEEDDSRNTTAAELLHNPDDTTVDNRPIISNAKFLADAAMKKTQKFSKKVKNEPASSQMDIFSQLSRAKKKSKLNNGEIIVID

B1: 90-nt ssDNA (ssDNA)
DNA: CGACAGGTCATGGCCGTACATGATATCCTCGAGCGTCCTGTTGCAACTTACACTCTGAATAGCCGAATTCTTAGGGTTAGGGTTAACA
binding result (Rad51): binds | binding result (hRad51): binds | binding result (Bre1): no binding | binding result (Srs2): binds | binding result (RNF20N): no binding | binding result (Rad51;Bre1): binds | binding result (hRad51;RNF20N): binds
